Key:
[1] = system: unactive JNK1 (Upstate, Inc.)
[2] = system: T1, His-tagged MKK7γ1
T1 sequence: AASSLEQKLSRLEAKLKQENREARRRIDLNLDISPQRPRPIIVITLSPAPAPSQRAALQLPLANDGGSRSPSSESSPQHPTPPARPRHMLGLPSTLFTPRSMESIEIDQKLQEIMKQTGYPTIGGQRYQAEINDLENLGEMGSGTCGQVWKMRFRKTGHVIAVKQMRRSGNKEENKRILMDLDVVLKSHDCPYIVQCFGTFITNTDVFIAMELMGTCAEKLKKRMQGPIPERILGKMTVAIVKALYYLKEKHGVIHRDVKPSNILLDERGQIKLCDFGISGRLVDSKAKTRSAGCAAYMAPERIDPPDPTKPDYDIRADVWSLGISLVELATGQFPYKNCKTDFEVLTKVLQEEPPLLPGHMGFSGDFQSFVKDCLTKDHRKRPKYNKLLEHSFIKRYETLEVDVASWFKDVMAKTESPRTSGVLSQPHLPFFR

[3] = system: unactive MKK7β1 (UBI)

| Substance | phosphorylation in a two-step cascade kinase assay (γ-32P-ATP, SDS/PAGE, autoradiography) [1] | phosphorylation in a two-step cascade kinase assay (γ-32P-ATP, SDS/PAGE, autoradiography) [2] | phosphorylation in a two-step cascade kinase assay (γ-32P-ATP, SDS/PAGE, autoradiography) [3] |
| --- | --- | --- | --- |
| unactive MKK7β1 (UBI) | in turn was able to phosphorylate JNK1 |  |  |
| Active MEKK1 (Upstate, Inc.) |  | The His-tagged MKK7γ1 protein and the MKK7β1 protein was phosphorylated by MEKK1 | The His-tagged MKK7γ1 protein and the MKK7β1 protein was phosphorylated by MEKK1 |
